Experimental data published in patent US20230391879A1 (INTERVET, published 2023).
Changes are numbered by the printed parent chain.

T1: Canine IL-31RA ECD-10His (canine)
T1 construct: made in HEK-293 or CHO cells and coated on the ELISA plates; also called canine IL-31 receptor alpha extracellular domain HIS-tagged protein; cIL-31RA
T1 chain: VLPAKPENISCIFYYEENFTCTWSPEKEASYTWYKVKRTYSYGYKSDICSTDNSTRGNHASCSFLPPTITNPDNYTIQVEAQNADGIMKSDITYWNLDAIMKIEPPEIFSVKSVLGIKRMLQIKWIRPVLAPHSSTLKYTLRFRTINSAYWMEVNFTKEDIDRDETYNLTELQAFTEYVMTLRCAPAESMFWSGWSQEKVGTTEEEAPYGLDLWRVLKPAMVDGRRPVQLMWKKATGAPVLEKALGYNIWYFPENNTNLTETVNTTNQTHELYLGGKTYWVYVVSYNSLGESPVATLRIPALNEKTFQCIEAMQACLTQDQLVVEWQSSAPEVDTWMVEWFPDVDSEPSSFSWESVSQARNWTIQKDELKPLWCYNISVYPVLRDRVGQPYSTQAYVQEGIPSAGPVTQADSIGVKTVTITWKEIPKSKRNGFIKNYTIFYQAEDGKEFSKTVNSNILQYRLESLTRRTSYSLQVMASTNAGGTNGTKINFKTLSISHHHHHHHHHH

B1: caninized 10A12VH1VL5 (antibody, V domains shown)
VH: EVQLVESGGDLVKPGGSLRLSCVASGFTFSNYYMAWVRQAPGKGLQWVASISTGGGNTYYRDSVKGRFTISRDNAKNTLYLQMNSLRAEDTAMYYCAKHGTLYFDYWGQGTLVTVSS
VL: QPVLTQPPSLSASLGTTARLTCERSSGDIGDSYVSWYQQKPGSPPRDLLYVDDQRPSGVSKSFSGSKDTSANAGLLLISGLQPEDEADYYCQSYDSNIDGPVFGGGTHLTVLG
notes: Caninized antibody, canine IgG-Bm heavy chain and canine lambda light chain; also called c10A12VH1-cIgGBm + c10A12VL5-cCL
B2: caninized 10A12VH1VL6 (antibody, V domains shown)
VH: B1 VH
VL: B1 VL with L48V, L49I, G58E, Y90F
notes: Caninized antibody, canine IgG-Bm heavy chain and canine lambda light chain; also called c10A12VH1-cIgGBm + c10A12VL6-cCL
B3: caninized 10A12VH2VL5 (antibody, V domains shown)
VH: B1 VH with V23A, K98R
VL: B1 VL
notes: Caninized antibody, canine IgG-Bm heavy chain and canine lambda light chain; also called c10A12VH2-cIgGBm + c10A12VL5-cCL
B4: caninized 10A12VH2VL6 (antibody, V domains shown)
VH: B1 VH with V23A, K98R
VL: B1 VL with L48V, L49I, G58E, Y90F
notes: Caninized antibody, canine IgG-Bm heavy chain and canine lambda light chain; also called c10A12; c10A12VH2-cIgGBm + c10A12VL6-cCL
B5: caninized 28F12VH2VK3 (antibody, V domains shown)
VH: EVQLVESGGDLVKPGGSLRLSCAASGFTFSDYYMAWVRQAPGKGLQWVATISYDGSSTYYRDSVRGRFTISRDNAKNTLYLQMNSLRAEDTAMYYCARGPLTDWAPNWFAYWGQGTLVTVSS
VL: DIVMTQSPASLSLSQEEKVTITCQTSEDIYSGLAWYQQKPGQAPKLLIYGASRLEDGVPSRFSGSGSGTDFSFTISSLEPEDVAVYFCQQGLKYPNTFGAGTKVELKR
notes: Caninized antibody, canine IgG-Bm heavy chain and canine kappa light chain; also called c28F12; c28F12VH2-cIgGBm + c28F12VK3-cCK
B6: caninized 28F12VH1VK4 (antibody, V domains shown)
VH: B5 VH with A23V, R98K
VL: DIVMTQTPLSLSVSPGETASISCQTSEDIYSGLAWFRQKPGQSPQLLIYGASRLEDGVPDRFSGSGSGTDFTLRISTVEADDTGVYFCQQGLKYPNTFGAGTKVELKR
notes: Caninized antibody, canine IgG-Bm heavy chain and canine kappa light chain; also called c28F12VH1-cIgGBm + c28F12VK4-cCK
B7: caninized 28F12VH1VK3 (antibody, V domains shown)
VH: B5 VH with A23V, R98K
VL: B5 VL
notes: Caninized antibody, canine IgG-Bm heavy chain and canine kappa light chain; also called c28F12VH1-cIgGBm + c28F12VK3-cCK
B8: caninized 28F12VH2VK4 (antibody, V domains shown)
VH: B5 VH
VL: B6 VL
notes: Caninized antibody, canine IgG-Bm heavy chain and canine kappa light chain; also called c28F12VH2-cIgGBm + c28F12VK4-cCK
B9: caninized 28F12VH2VK2 (antibody, V domains shown)
VH: B5 VH
VL: B5 VL with D1E, F87Y
notes: Caninized antibody, canine IgG-Bm heavy chain and canine kappa light chain; also called caninized 28F12VH2K2; c28F12
B10: caninized 44E2VH2VK1 (antibody, V domains shown)
VH: EVQLVESGGDLVKPEGSLRLSCVVSGFSLTSNGVSWVRQAPGKGLQWIAAISSGGSTYYNSVLKSRLTISRDNAKNTLYLQMNSLRTEDTAVYYCARRLSGYNYVPFAYWGQGTLVTVSS
VL: EIVMTQSPASLSLSQEEKVTITCKASQNIYKHLAWYQQKPGQAPKLLIYNANSLQTGVPSRFSGSGSGTDFSFTISSLEPEDVAVYYCQQYYSGDTFGAGTKVELKR
notes: Caninized antibody, canine IgG-Bm heavy chain and canine kappa light chain; also called c44E2; c44E2VH2-cIgGBm + c44E2VK1-cCK
B11: caninized 44E2VH5VK1 (antibody, V domains shown)
VH: ELTLQESGPGLVKPSQTLSLTCTVSGFSLTSNGVSWIRQRPGRGLEWMGAISSGGSTYYNSVLKSRISITADTAKNQFSLQLSSMTTEDTAVYYCARRLSGYNYVPFAYWGQGTLVTVSS
VL: B10 VL
notes: Caninized antibody, canine IgG-Bm heavy chain and canine kappa light chain; also called c44E2VH5-cIgGBm + c44E2VK1-cCK
B12: caninized 44E2VH5VK2 (antibody, V domains shown)
VH: B11 VH
VL: B10 VL with V58I, Y87F
notes: Caninized antibody, canine IgG-Bm heavy chain and canine kappa light chain; also called c44E2; c44E2VH5-cIgGBm + c44E2VK2-cCK
B13: caninized 44E2VH2VK2 (antibody, V domains shown)
VH: B10 VH
VL: B10 VL with V58I, Y87F
notes: Caninized antibody, canine IgG-Bm heavy chain and canine kappa light chain; also called c44E2; c44E2VH2-cIgGBm + c44E2VK2-cCK
B14: caninized 44E2VH4VK1 (antibody, V domains shown)
VH: B11 VH with T23V, F27G, L29V
VL: B10 VL
notes: Caninized antibody, canine IgG-Bm heavy chain and canine kappa light chain; also called c44E2VH4-cIgGBm + c44E2VK1-cCK
B15: 47F3 (antibody, V domains shown)
VH: EVQLVESGGGLVQPGRSMKLSCVASGFTFSNYYMAWVRQAPTKGLEWVASISTGGGNTYYRDSVKGRFTISRDNAKSTLYLQMDSLRSEDTATYYCARHGTLYFDYWGQGVMVTVS
VL: QFTLTQPKSVSGSLRSTITIPCERSSGDIGNTYVSWYQQHLGRPPINVIYADDQRPSEVSDRFSGSIDSSSNSASLTITNLQMDDEADYFCQSYDSNIDGPVFGGGTKLTVL
notes: Rat monoclonal antibody from a hybridoma; also called rat mAb 47F3
B16: 51G4 (antibody, V domains shown)
VH: EVQLVESGGGLVQPGRSMKLSCAALGFTFSNYYMAWVRQAPTKGLEWVASISTGGGNTYYRDSVKGRFTISRDNAKNTLYLQMDSLRSEDTATYYCARHGTIAAMDYWGQGVMVTVSS
VL: B15 VL with S25N, S26N, N31D, T32S, N47I
notes: Rat monoclonal antibody from a hybridoma; also called rat mAb 51G4
B17: 49D3 (antibody, V domains shown)
VH: EVQLVESGGGLVQPGRSMKLSCAASGFTFSNYYMAWVRQAPTKGLEWVASISTGGGNTYYRDSVKGRFTISRDNAKSTLYLQMDSLRSEDTATYYCARHGTLYFDYWGQGVMVTVSS
VL: B15 VL with N31D, T32S
notes: Rat monoclonal antibody from a hybridoma; also called rat mAb 49D3
B18: 27A10 (antibody, V domains shown)
VH: B17 VH with A23T, S88A, G100T, T101M, L102G
VL: B15 VL with N31D, T32N, S96G, N97K, D99E, G100I
notes: Rat monoclonal antibody from a hybridoma; also called rat mAb 27A10
B19: 10A12 (antibody, V domains shown)
VH: B17 VH with Q13K, S77R, A97G
VL: B15 VL with N31D, T32S, A51V, N80D
notes: Rat monoclonal antibody from a hybridoma; also called rat mAb 10A12
B20: 53B3 (antibody, V domains shown)
VH: B16 VH with L25F, S30N, Y59F, A75V, N77S, T78I, Y80S
VL: B15 VL with S25T, N31D, T32N
notes: Rat monoclonal antibody from a hybridoma; also called rat mAb 53B3
B21: 28F12 (antibody, V domains shown)
VH: EVQLVESDGGLAQPGRSLKLSCAASGFTFSDYYMAWVRQAPTKGLEWVATISYDGSSTYYRDSVRGRFTISRDNAKSTLYLQMDSLRSEDTATYYCARGPLTDWAPNWFAYWGQGTLVTVSS
VL: DIQMTQSPASLSASLGETVTIQCQTSEDIYSGLAWYQQKPGKSPQFLIYGASRLEDGVPSRFSGSGSGTQYSLKISSMQTEDEGVYFCQQGLKYPNTFGAGTKLELK
notes: Rat monoclonal antibody from a hybridoma; also called rat mAb 28F12
B22: 48B1 (antibody, V domains shown)
VH: EVQLVESGGGLVQPGRTLKLFCVASGFTFNNYWMTWIRQAPGKGLEWVASITNTGGSTYYPDSVKGRFTISRDNAKSTLYLQMNSLRSEDTATYYCTRGPDYGGHLNWFVYWGQGTLVTVSS
VL: DIVMTQSPTSMSISVGDRVTMNCKASQNVGSNVDWYQQKTGQSPKLLIYKASNRYTGVPDRFTGSGSGTDFTFTISNMQAEDLAVYYCMQSNSYPPTFGGGTKLELK
notes: Rat monoclonal antibody from a hybridoma; also called rat mAb 48B1
B23: 20B8 (antibody, V domains shown)
VH: EVQLVESGGGLVQPGRSLKLSCVASGFTFNNYWMTWIRQAPGKGLEWVASITNTGGSTYYPDSVKGRFTISRDNAKSTLYLQMNSLRSEDTATYYCTRGPTTVVGGWFAYWGQGTLVTVSS
VL: B22 VL with K50R, A51P
notes: Rat monoclonal antibody from a hybridoma; also called rat mAb 20B8
B24: 7D7 (antibody, V domains shown)
VH: B22 VH with T17S, F21S, Y59F, V110A
VL: B22 VL with V15A, F62C
notes: Rat monoclonal antibody from a hybridoma; also called rat mAb 7D7
B25: 22B4 (antibody, V domains shown)
VH: B22 VH with T17S, F21S, N31K, T58S, P61S, D90E, V110A
VL: B22 VL with Q38E, L47V
notes: Rat monoclonal antibody from a hybridoma; also called rat mAb 22B4
B26: 44E2 (antibody, V domains shown)
VH: QVQLKESGPGLVQPSQTLSLTCTVSGFSLTSNGVSWVRQPPGKGLEWIAAISSGGSTYYNSVLKSRLSISRDTSKSQVFLKMNSLQTEDTAIYFCTRRLSGYNYVPFAYWGQGTLVTVSS
VL: DIQMTQSPSLLSASVGDRVTLNCKASQNIYKHLAWCQQKLGEPPNLLISNANSLQTGIPSRFSGSGSGTDFTLTISSLQPEDVATYFCQQYYSGDTFGAGTKLELK
notes: Rat monoclonal antibody from a hybridoma; also called rat mAb 44E2
B27: 4G7 (antibody, V domains shown)
VH: EVQLQQYGAELGKPGTSVKLSCKVSGYNIRSTFMHWVNQRPGKGLEWIGRIDPVNGNTIYSEKFKSKATLTADTSSNTAYMQLSQLKSDDTAIYFCAMFNYAGHSGDYWGQGVMVTVSS
VL: DIQMTQSPSSMSVSLGDTVTITCRASQDVGIYVNWFQQKPGKSPRRMIYRATNLADGVPSRFSGSRSGSDYSLTISSLESEDVADYHCLQYDEYPYTFGAGTKLELK
notes: Rat monoclonal antibody from a hybridoma; also called rat mAb 4G7

Biological target: T1, Canine IL-31RA ECD-10His
Assay: ELISA (FIG. 6A)

Row | binding result | Binder
1 | binds | B1
2 | binds | B2
3 | binds | B3
4 | binds | B4

Biological target: T1, Canine IL-31RA ECD-10His
Assay: ELISA (FIG. 6B)

Row | binding result | Binder
5 | binds | B5
6 | binds | B6
7 | binds | B7
8 | binds | B8
9 | binds | B9

Biological target: T1, Canine IL-31RA ECD-10His
Assay: ELISA (FIG. 6C)

Row | binding result | Binder
10 | binds | B10
11 | binds | B11
12 | binds | B12
13 | binds | B13
14 | binds | B14

Biological target: T1, Canine IL-31RA ECD-10His
Assay: ELISA, IL-31RA coated

Row | binding result | Binder
15 | binds | B15
16 | binds | B16
17 | binds | B17
18 | binds | B18
19 | binds | B19
20 | binds | B20
21 | binds | B21
22 | binds | B22
23 | binds | B23
24 | binds | B24
25 | binds | B25
26 | binds | B26
27 | binds | B27
